Test results: article PMC7088233

Legend:
[1] = target: recombinant glycosylated HIV-1 IIIB gp120 (baculovirus) (HIV-1 IIIB) (UniProt P04578)
[2] = target: recombinant glycosylated HIV-1 IIIB gp120 (baculovirus) (HIV-1 IIIB) (UniProt P04578); test: SPR

Row | Substance | IC50 of neutralization of HIV-1 (derived from pNL4-3) in Jurkat cells [1] [nM] | Ka [2] [M⁻¹] | Kd [2] [nM] | koff [2] [s⁻¹]
1 | His-tagged recombinant KAA-1 (Kappaphycus alvarezii agglutinin 1) (natural protein) | 12.9 | – | – | –
2 | native KAA-1 lectin from Kappaphycus alvarezii (natural protein) | 9.2 | – | – | –
3 | native KAA-2 lectin from Kappaphycus alvarezii (natural protein) | 7.3 | – | – | –
4 | recombinant KAA-1 after removal of the His tag by thrombin (natural protein) | – | 1.61e+09 | 0.622 | 0.000529
